Source: patent publication US6465220

Key:
[1] = biological target: T1, PSGL-1a peptide
T1 chain: QATEYEYLDYDFLPEC

[2] = biological target: EA2 peptide
[3] = biological target: T2, PSGL-1b peptide
T2 chain: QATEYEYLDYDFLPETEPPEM

[4] = biological target: Muc7 peptide

B1: soluble recombinant human GalNAc-T1 (pAcGP67-GalNAc-T1-sol) (protein)
chain: GLPAGDVLEPVQKPHEGPGEMGKPVVIPKEDQEKMKEMFKINQFNLMASEMIALNRSLPDVRLEGCKTKVYPDNLPTTSVVIVFHNEAWSTLLRTVHSVINRSPRHMIEEIVLVDDASERDFLKRPLESYVKKLKVPVHVIRMEQRSGLIRARLKGAAVSKGQVITFLDAHCECTVGWLEPLLARIKHDRRTVVCPIIDVISDDTFEYMAGSDMTYGGFNWKLNFRWYPVPQREMDRRKGDRTLPVRTPTMAGGLFSIDRDYFQEIGTYDAGMDIWGGENLEISFRIWQCGGTLEIVTCSHVGHVFRKATPYTFPGGTGQIINKNNRRLAEVWMDEFKNFFYIISPGVTKVDYGDISSRVGLRHKLQCKPFSWYLENIYPDSQIPRHYFSLGEIRNVETNQCLDNMARKENEKVGIFNCHGMGGNQVFSYTANKEIRTDDLCLDVSKLNGPVTMLKCHHLKGNQLWEYDPVKLTLQHVNSNQCLDKATEEDSQVPSIRDCNGSRSQQWLLRNVTLPEIF
GalNAc-transferase activity [1]: exhibited poor activities with both peptide designs | Km for acceptor substrate [2]: 70 µM | Vmax [2]: 0.99 nmol/min/µg | GalNAc-transferase activity [3]: exhibited poor activities with both peptide designs | Km for acceptor substrate [3]: > 2000 µM | Km for acceptor substrate [4]: 40 µM | Vmax [4]: 0.76 nmol/min/µg

B2: soluble recombinant human GalNAc-T3 (pAcGP67-GalNAc-T3-sol) (protein)
chain: MERNMKNKNKMLDLMLEAVNNIKDAMPKMQIGAPVRQNIDAGERPCLQGYYTAAELKPVLDRPPQDSNAPGASGKAFKTTNLSVEEQKEKERGEAKHCFNAFASDRISLHRDLGPDTRPPECIEQKFKRCPPLPTTSVIIVFHNEAWSTLLRTVHSVLYSSPAILLKEIILVDDASVDEYLHDKLDEYVKQFSIVKIVRQRERKGLITARLLGATVATAETLTFLDAHCECFYGWLEPLLARIAENYTAVVSPDIASIDLNTFEFNKPSPYGSNHNRGNFDWSLSFGWESLPDHEKQRRKDETYPIKTPTFAGGLFSISKEYFEYIGSYDEEMEIWGGENIEMSFRVWQCGGQLEIMPCSVVGHVFRSKSPHSFPKGTQVIARNQVRLAEVWMDEYKEIFYRRNTDAAKIVKQKAFGDLSKRFEIKHRLQCKNFTWYLNNIYPEVYVPDLNPVISGYIKSVGQPLCLDVGENNQGGKPLIMYTCHGLGGNQYFEYSAQHEIRHNIQKELCLHAAQGLVQLKACTYKGHKTVVTGEQIWEIQKDQLLYNPFLKMCLSANGEHPSLVSCNPSDPLQKWILSQND
GalNAc-transferase activity [1]: exhibited poor activities with both peptide designs | GalNAc-transferase activity [3]: exhibited poor activities with both peptide designs
